# From patent publication US20230235058A1 (OXFORD UNIVERSITY INNOVATION, published 2023)
# Residue numbers refer to the chain shown, from its start. Names and notes keep the numbering of the source.
# T1: human FcγR2A 131R (human, UniProt P12318 34-217)
# T1 construct: extracellular domain
# T1 sequence (looked up): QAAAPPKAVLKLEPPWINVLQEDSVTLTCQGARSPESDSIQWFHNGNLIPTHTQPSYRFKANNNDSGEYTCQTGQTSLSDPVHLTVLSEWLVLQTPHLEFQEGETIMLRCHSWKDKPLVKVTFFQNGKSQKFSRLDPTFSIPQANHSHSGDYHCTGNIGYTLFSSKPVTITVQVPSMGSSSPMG
# T2: human FcγR2A 131H (human, UniProt P12318 34-217)
# T2 construct: extracellular domain
# T2 sequence (looked up): T1 sequence (looked up) with R134H
# T3: human FcγR2B (human, UniProt P31994 43-217)
# T3 construct: extracellular domain; also called hFcγR2B; CD32B
# T3 sequence (looked up): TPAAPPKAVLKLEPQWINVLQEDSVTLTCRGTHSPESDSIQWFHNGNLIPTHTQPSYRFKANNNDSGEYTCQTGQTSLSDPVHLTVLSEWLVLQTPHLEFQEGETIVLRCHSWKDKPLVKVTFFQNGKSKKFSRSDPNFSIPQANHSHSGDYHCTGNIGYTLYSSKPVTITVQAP
# T4: soluble cynomolgus macaque BTLA extracellular domain (BTLA K31-R151) (cynomolgus macaque)
# T4 construct: also called cynomolgus BTLA; cyno BTLA
# T4 chain: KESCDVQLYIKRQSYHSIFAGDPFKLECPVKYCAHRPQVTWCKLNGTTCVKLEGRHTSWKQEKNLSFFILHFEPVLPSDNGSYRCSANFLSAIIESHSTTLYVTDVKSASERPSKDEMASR
# B1: humanised 2.8.6 hIgG1 delta ac P238D (antibody)
# chain 1: QVTLKESGPALVKPTQTLTLTCTVSGFSLTTYGVHWIRQPPGKALEWLGVMWPGGRTSYNPSLKSRLTITKDNSKSQVVLTMTNMDPVDTATYYCVRGDYEYDYYAMDYWGQGTLVTVSSASTKGPSVFPLAPSSKSTSGGTAALGCLVKDYFPEPVTVSWNSGALTSGVHTFPAVLQSSGLYSLSSVVTVPSSSLGTQTYICNVNHKPSNTKVDKKVEPKSCDKTHTCPPCPAPPVAGGDSVFLFPPKPKDTLMISRTPEVTCVVVDVSHEDPEVKFNWYVDGVEVHNAKTKPREEQYNSTYRVVSVLTVLHQDWLNGKEYKCKVSNKGLPSSIEKTISKAKGQPREPQVYTLPPSRDELTKNQVSLTCLVKGFYPSDIAVEWESNGQPENNYKTTPPVLDSDGSFFLYSKLTVDKSRWQQGNVFSCSVMHEALHNHYTQKSLSLSP
# chain 2: EIVLTQSPATLSLSPGERATLSCRASSSVSYMHWYQQKPGQAPRPLIYATSNRATGIPARFSGSGSGTDYTLTISSLEPEDFAVYYCHQWSSNPYTFGQGTKLEIKRTVAAPSVFIFPPSDEQLKSGTASVVCLLNNFYPREAKVQWKVDNALQSGNSQESVTEQDSKDSTYSLSSTLTLSKADYEKHKVYACEVTHQGLSSPVTKSFNRGEC
# B2: humanised 2.8.6 hIgG1 delta ab P238D (antibody)
# chain 1: QVTLKESGPALVKPTQTLTLTCTVSGFSLTTYGVHWIRQPPGKALEWLGVMWPGGRTSYNPSLKSRLTITKDNSKSQVVLTMTNMDPVDTATYYCVRGDYEYDYYAMDYWGQGTLVTVSSASTKGPSVFPLAPSSKSTSGGTAALGCLVKDYFPEPVTVSWNSGALTSGVHTFPAVLQSSGLYSLSSVVTVPSSSLGTQTYICNVNHKPSNTKVDKKVEPKSCDKTHTCPPCPAPPVAGDSVFLFPPKPKDTLMISRTPEVTCVVVDVSHEDPEVKFNWYVDGVEVHNAKTKPREEQYNSTYRVVSVLTVLHQDWLNGKEYKCKVSNKGLPSSIEKTISKAKGQPREPQVYTLPPSRDELTKNQVSLTCLVKGFYPSDIAVEWESNGQPENNYKTTPPVLDSDGSFFLYSKLTVDKSRWQQGNVFSCSVMHEALHNHYTQKSLSLSP
# chain 2: B1 chain 2
# B3: 24H7 (antibody, IgG1, V domains shown)
# VH: QVQLQQSGAELVRPGASVTLSCKASGYTFTDYEIHWVKQTLVHGLEWIGPIDPDTGNTAYNQNLKGKAILTADKSSSTAYMELRSLTSEDSAVYYCTRGGYDSDWGFAYWGQGTLVTVSA
# VL: DIVMTQATPSVPVTPGESVSISCRSSKSLLHSNGNTFLFWFLQRPGQSPQLLIYRMSDLASGVPDRFSGSGSGTAFTLRISRVEAEDVGIYYCMQHLEYPFTFGSGTKLEIK
# notes: mIgG1
# B4: 1H6 (antibody, IgG1, V domains shown)
# VH: EVQLQQSVAELVRPGASVKLSCTASGFNIKNTYMHWVKQRPEQGLEWIGRIDPANGNTKYDPKFQGKATITADTSSNTAYVQLSSLTSEDTAIYYCALTYYGSSQHYFDYWGQGTTLTVSS
# VL: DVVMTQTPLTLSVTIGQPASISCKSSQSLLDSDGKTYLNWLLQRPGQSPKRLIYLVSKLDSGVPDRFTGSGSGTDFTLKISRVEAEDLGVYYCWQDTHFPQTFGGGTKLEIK
# notes: mIgG1
# B5: 3E8 (antibody, IgG1, V domains shown)
# VH: QVQLQQSGAELARPGASVRLSCKASGYTFTSYAIRWVKQRTGQGLEWIGEIYPRSGNTYYNENFKGKATLTADKSSSTAYMELRSLTSEDSAVYFCARSGGASYTMDYWGQGTSVTVSS
# VL: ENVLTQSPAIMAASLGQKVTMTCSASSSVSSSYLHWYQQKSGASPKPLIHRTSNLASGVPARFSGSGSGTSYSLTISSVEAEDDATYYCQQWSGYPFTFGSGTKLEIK
# notes: mIgG1; also called clone 3E8
# B6: 26B1 (antibody, IgG1, V domains shown)
# VH: EVQLQQSGPVLVKPGASVKMSCKASGYTFTDYYLNWVKQSHGKSLEWIGLIDPYNGGSSCNQKFKGKATLTVDKSSSTAYMDLNSLTSEDSAVYYCARGNAMDYWGQGTSVTVSS
# VL: DIVMTQSHKFMSTSVGDRVSITCKASQDVSTAVAWYQEKPGQSPKLLIYWASTRHTGVPDRFTGSGSGTDYILNISSVQAEDLALYYCQQHYIIPYMFGGGTKLEIK
# notes: mIgG1
# B7: 16H2 (antibody, IgG1, V domains shown)
# VH: EVQLQQSGPELVQPGASVKISCKASGYTFTDYYMIWVKQSHGKSLEWIGNINPNNGGTTYNQKFKGKATLTVDKSSSTAYMGLPSLTSEDSAVYYCARGGLRPLYFDYWGQGTTLTVSS
# VL: NIVMTQSPKSMSMSVGERVTLSCKASENVDTYVSWYQQKPEQSPKLLIYGASNRYTGVPDRFTGSGSATDFTLTISSVQAEDLADYHCGQSYSYPLTFGAGTKLELI
# notes: mIgG1
# B8: 8C4 (antibody, IgG1, V domains shown)
# VH: DVQLQESGPGMVKPSQSLSLTCTVTGYSITSGYDWHWIRHFPGNKLEWMGYISYSGSTNYNPSLKSRISITHDTSKNHFFLKLNSVTTEDTATYYCARGTPVVAEDYFDYWGQGTTLTVSS
# VL: QAVVTQESALSTSPGETVTLTCRSSTGAVTTSNYANWVQEKPDHLFTGLIGATNNRAPGVPARFSGSLIGDKAALTITGAQTEDEAIYFCALWYSNHLVFGGGTKLTVLG
# notes: mIgG1
# B9: 14D4 (antibody, IgG1, V domains shown)
# VH: QVQLQQPGAELVKPRASVKLSCKASGYTFTSYWMHWVKQRPGQGLEWIGMIHPNNGIPNYNEKFKSKATLTVDKSSTTAYMQLSSLTSEDSAVYHCAREGYYGSEGYFDVWGTGTTVTVSS
# VL: QIVLTQSPAIMSASPGEKVTMTCSASSSISYIHWYQQKPGTSPKRWIYDTSKLASGVPARFSGSGSGTSYSLTISSMEAEDAATYYCHQRSTYPYTFGGGTKLEIK
# notes: mIgG1
# B10: Engineered humanised 6.2 (Variant A) (antibody, V domains shown)
# VH: EVQLVESGGGLVKPGGSLRLSCAASGFTLSSYGMSWVRQAPGKGLEWVASIRSEGQTYYPDSVKGRFTISRDNAKNTLYLQMSSLRAEDTAVYYCTRGGYYGSSPYYWGQGTTVTVSS
# VL: DIVMTQSPLSLPVTPGEPASISCKSSQSLLYSSNQKNYLAWYQQKPGQSPKLLIYWASTRESGVPDRFSGSGSGTDFTLKISRVEAEDVGVYYCQQYYNYLTFGGGTKVEIKR
# Target: T5, human FcRn (human, UniProt P55899 24-297; P61769 21-119, limits assumed, biotinylated)
# T5 construct: bought; also called FcRn pH6
# Experiment: SPR, pH6.0
# Protocol: For the high affinity FcR interactions (FcγR1A, and also FcRn assessed at pH6.0) the binding was assessed in a kinetic analysis with antibody as analyte. […] Reference flow cell 1 was left empty in all channels. Purified antibody was then injected at a single concentration and on/off rates calculated by curve fitting on BiaEvaluation software. […] IgG Fc has two binding sites for FcRn so this assessment performed with FcRn immobilised at high density provides an avidity estimate for the interaction rather than a true KD.
# For AntiCD3/CD28 (CD4 T cell proliferation) repeat 1 in this document: test concentration or dose not given here.
# For AntiCD3/CD28 (CD4 T cell proliferation) repeat 2 in this document: test concentration or dose not given here.
# For AntiCD3/CD28 (CD69+ CD4 T cells) repeat 1 in this document: test concentration or dose not given here.
# For T cell reporter (NFκB signaling) in this document: test concentration or dose not given here.
row,avidity (FcRn pH6) [nM],Binder
1,14.2,B1

# Target: T1, human FcγR2A 131R
# Experiment: SPR 37C, steady state;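 also: fc variants captured on chip-bound human BTLA ectodomain, recombinant FcγR ectodomains injected as analyte at varied concentrations, double-referenced equilibrium binding fitted to Langmuir model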
row,Kd [µM],Binder
1,399,B1

# Target: T2, human FcγR2A 131H
# Experiment: SPR 37C, steady state;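 also: fc variants captured on chip-bound human BTLA ectodomain, recombinant FcγR ectodomains injected as analyte at varied concentrations, double-referenced equilibrium binding fitted to Langmuir model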
row,Kd [µM],Binder
1,771,B2

# Target: T3, human FcγR2B
# Experiment: SPR 37C, steady state;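 also: fc variants captured on chip-bound human BTLA ectodomain, recombinant FcγR ectodomains injected as analyte at varied concentrations, double-referenced equilibrium binding fitted to Langmuir model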
row,Kd [µM],Binder
1,876,B2
2,1170,B1

# Target: T6, human FcγR3A 158V (human, UniProt P08637 17-208)
# T6 construct: extracellular domain
# Experiment: SPR 37C, steady state;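 also: fc variants captured on chip-bound human BTLA ectodomain, recombinant FcγR ectodomains injected as analyte at varied concentrations, double-referenced equilibrium binding fitted to Langmuir model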
# T6 sequence (P08637 17-208 F176V): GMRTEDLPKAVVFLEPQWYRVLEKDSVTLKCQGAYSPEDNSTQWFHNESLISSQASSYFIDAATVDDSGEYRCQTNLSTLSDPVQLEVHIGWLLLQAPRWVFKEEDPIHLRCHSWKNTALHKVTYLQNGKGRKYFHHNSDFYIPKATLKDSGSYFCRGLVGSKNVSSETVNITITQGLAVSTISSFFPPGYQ
row,Kd [µM],Binder
1,1410,B1

# Target: full length human BTLA expressed on cells (human, UniProt Q7Z6A9 31-289)
# Experiment: cell-based or functional assay
row,T cell reporter (NFκB signaling) [% inhibition],Binder
1,22,B3
2,26,B4
3,30,B5
4,29,B6
5,29,B7
6,21,B8
7,16,B9

# Target: chimeric BTLA of humanised-BTLA mice (human extracellular region, murine transmembrane and signaling … (human; mouse, UniProt Q7TSA3 184-306, limits assumed)
# Experiment: cell-based or functional assay
# chimeric BTLA of humanised-BTLA mice (human extracellular region, murine transmembrane and signaling …, sequence (Q7TSA3 other isoform, or with tags, fused parts or gaps mutant limits assumed): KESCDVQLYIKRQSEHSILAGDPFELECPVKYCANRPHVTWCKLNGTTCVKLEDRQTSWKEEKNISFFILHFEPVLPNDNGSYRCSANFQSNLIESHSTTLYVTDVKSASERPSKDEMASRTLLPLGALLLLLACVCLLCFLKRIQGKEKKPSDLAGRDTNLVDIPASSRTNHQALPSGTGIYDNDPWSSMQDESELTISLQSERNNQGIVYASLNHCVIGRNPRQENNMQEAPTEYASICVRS
AntiCD3/CD28 (CD4 T cell proliferation) repeat 1 [% inhibition],AntiCD3/CD28 (CD4 T cell proliferation) repeat 2 [% inhibition],AntiCD3/CD28 (CD69+ CD4 T cells) repeat 1 [% inhibition],AntiCD3/CD28 (CD69+ CD4 T cells) repeat 2 [% inhibition],MLR (CD4 T cell proliferation) repeat 1 [% inhibition],MLR (CD4 T cell proliferation) repeat 2 [% inhibition],Binder
13,23,52,44,23,31,B3
26,19,47,53,31,16,B4
27,35,52,64,43,35,B5
11,19,35,30,12,10,B6
11,23,51,60,40,26,B7
12,4,29,29,42,-2,B8
24,29,43,52,39,26,B9

# Target: T7, monomeric soluble human BTLA extracellular domain (BTLA K31-R151) (human, UniProt Q7Z6A9 31-151)
# T7 construct: also called hBTLA; monomeric BTLA
# Experiment: SPR 37C, mAb captured, BTLA ECD analyte;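 also: Anti-BTLA mouse antibodies captured on a sensor chip via polyclonal anti-mouse IgG, isotype control antibody in reference channel, rates fitted after reference and blank subtraction to derive Kd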
# Protocol: (§1) Mouse antibody capture kit (GE Healthcare) was used to coat a Series S CMS Sensor Chip (GE Healthcare) with polyclonal anti-mouse IgG. Anti-BTLA antibody was then captured onto the biosensor surface and a negative control antibody (clone Mopc21; Biolegend) captured in the reference channel. […] Association and dissociation rates were fitted using BiaEvaluation Software (GE Healthcare) after reference and blank subtractions, and dissociation constants were calculated (FIG. 1b).
Kd [µM],koff [s⁻¹],kon [M⁻¹ s⁻¹],Binder
0.00066,0.00016,243000,B3
0.112,0.0608,543000,B5

# Target: T4, soluble cynomolgus macaque BTLA …
# Experiment: SPR 37C, mAb captured, BTLA ECD analyte;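 also: Anti-BTLA mouse antibodies captured on a sensor chip via polyclonal anti-mouse IgG, isotype control antibody in reference channel, rates fitted after reference and blank subtraction to derive Kd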
# Protocol: as §1
row,Kd [µM],Binder
1,0.00608,B4
2,0.607,B5
3,0.168,B6
4,0.16,B7
5,0.161,B8
6,0.00183,B9

# Target: T7, monomeric soluble human BTLA …
# Experiment: SPR Biacore 8K 37C, single cycle kinetics;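 also: antibody captured on sensor chip, soluble BTLA extracellular domain flowed over at several concentrations in HBS-EP pH 7.4, rates fitted after subtracting isotype-control reference channel and blank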
# Protocol: (§2) The binding affinity and kinetics of humanised BTLA agonist antibodies to human or cynomolgus BTLA were determined by surface plasmon resonance using the Biacore 8K (GE Healthcare). […] Anti-BTLA antibody was then captured onto the biosensor surface and a negative control antibody (human IgG1k isotype control; Sino Biological cat #HG1K) captured in the reference channel. Various concentrations of monomeric soluble human BTLA extracellular domain (BTLA^K31-R151, produced recombinantly in house) or soluble cynomolgus macaque BTLA extracellular domain (BTLA^K31-R151, produced recombinantly in house) were then injected over the immobilized antibodies in the buffer HBS-EP (GE Healthcare, cat #BR100669), pH 7.4 (HBS-P) at 37° C., in a single cycle kinetics analysis.
Kd [µM],koff [s⁻¹],kon [M⁻¹ s⁻¹],Binder
0.0109,0.00756,694000,B10

# Target: T4, soluble cynomolgus macaque BTLA …
# Experiment: SPR Biacore 8K 37C, single cycle kinetics;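 also: antibody captured on sensor chip, soluble BTLA extracellular domain flowed over at several concentrations in HBS-EP pH 7.4, rates fitted after subtracting isotype-control reference channel and blank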
# Protocol: as §2
Kd [µM],koff [s⁻¹],kon [M⁻¹ s⁻¹],Binder
0.695,0.0507,72900,B10
